Consider one substance from paper PMC3458019.

The nature of the series: mouse liver sections 10 min after injection, anti-FX/CD68 staining. The conditions noted are these: glycan lost; control: pd-FX.

Regarding Factor X (FX): PNGase F (N-degly-FX), the localisation_or_trafficking result was “changes, the localization of FX was predominantly to hepatocytes”.
